Results published in article PMC9637154.
Read-outs that look alike come from different tables or passages of the source.

Columns and labels:
[1] = cell-surface biotinylation, anti-hACE2 western blot; settings: glycan lost; control: full-length hACE2 wt
[2] = focus reduction neutralization test, Vero E6 cells; settings: glycan lost; control: shACE2-wt
[3] = glycan lost

angiotensin-converting enzyme 2 (hACE2): N90A/N322A
expression_or_secretion [1]: no change | other: decoy neutralising activity of shACE2, other: FRNT50 [2]: increases | other: decoy neutralising activity of shACE2, other: FRNT50 [3]: increases | other: virus entry into hACE2-expressing cells [3]: increases | other: virus entry into hACE2-expressing cells, fold_change [3]: increases

angiotensin-converting enzyme 2 (hACE2): N90S/N322S
other: virus entry into hACE2-expressing cells [3]: increases | other: virus entry into hACE2-expressing cells, fold_change [3]: increases

angiotensin-converting enzyme 2 (hACE2): N90A
expression_or_secretion [1]: no change | other: decoy neutralising activity of shACE2, other: FRNT50 [2]: increases | other: virus entry into hACE2-expressing cells [3]: increases | other: virus entry into hACE2-expressing cells, fold_change [3]: increases

angiotensin-converting enzyme 2 (hACE2): N90S
other: virus entry into hACE2-expressing cells [3]: increases

angiotensin-converting enzyme 2 (hACE2): N53A
expression_or_secretion [1]: no change | other: virus entry into hACE2-expressing cells [3]: decreases | other: virus entry into hACE2-expressing cells, fold_change [3]: decreases

angiotensin-converting enzyme 2 (hACE2): N322S
other: virus entry into hACE2-expressing cells [3]: increases

angiotensin-converting enzyme 2 (hACE2): N322A
expression_or_secretion [1]: no change | other: virus entry into hACE2-expressing cells [3]: increases | other: virus entry into hACE2-expressing cells, fold_change [3]: increases

angiotensin-converting enzyme 2 (hACE2): N53A/N90A/N322A
expression_or_secretion [1]: no change | other: decoy neutralising activity of shACE2, other: FRNT50 [2]: increases | other: virus entry into hACE2-expressing cells [3]: increases | other: virus entry into hACE2-expressing cells, fold_change [3]: increases
